# Source: the supplement of paper PMC10724198
# ± gives the standard deviation of the averaged measurements.
# Test system: Saccharomyces cerevisiae
# Experiment: protein stability index of tFT-peptide fusion (C-terminal peptide) (PSI (0-1 scale)); higher = more stable (slower turnover)
# Conditions: genetic background: wild type; temperature: 30 C
# Method: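 Multiplexed protein stability (MPS) profiling in S. cerevisiae. Random 12-aa peptides (tFT-X12 library) are fused to the C-terminus of a sfGFP-mCherry tandem fluorescent timer, after mCherry and a GGGS linker. Cells are FACS-sorted into 8 mCherry/sfGFP bins and deep-sequenced. The protein stability index (PSI) is the read-weighted bin average, scaled from 0 (unstable) to 1 (stable). Only peptides with >10 reads are reported; cells were grown at 30 °C in SC-His with glucose.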
# 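Note: PSI is a weighted mean of sequencing reads over stability bins, variants kept only with over 10 reads, mCherry proximal and sfGFP distal, peptide attached via GGGS linker.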
row,Sequence,protein stability index
1,FPTIGLSCSFPH,0.676 ± 0.042
2,FQGRLILCIETR,0.5323 ± 0.00074
3,FQWVLDGYRCWD,0.694 ± 0.098
4,FRAPYWCSRVFG,0.715 ± 0.095
5,FRGALFLLSSRV,0.571
6,FRGGCDRIRYRM,0.696 ± 0.0089
7,FRGGRTEWEKNV,0.719 ± 0.058
8,FRGSVRLIGFAQ,0.666 ± 0.0081
9,FRHPGSAGPPVA,0.713 ± 0.011
10,FRLLHLPALSCP,0.565 ± 0.013
11,FRLLSTINSCCV,0.612 ± 0.036
12,FRLYALAPHSPG,0.67 ± 0.027
13,FRPPFRSAPLSP,0.679 ± 0.051
14,FRQWCTEVYIEV,0.531 ± 0.031
15,FRRSLILPLPPT,0.6814 ± 0.0037
16,FRRYGKEAVDKD,0.696 ± 0.011
17,FRSFALFGNSFL,0.704 ± 0.0053
18,FRYSSLPRPLVF,0.5893 ± 0.0029
19,FSGISVMCLFSG,0.687 ± 0.12
20,FSHLYCSLVTTD,0.681 ± 0.067
21,FSLFGVGQITFL,0.683 ± 0.056
22,FSLFSSPPSLFC,0.672 ± 0.03
23,FSLPLCAITGPQ,0.702 ± 0.056
24,FSPALPPSHSPP,0.676 ± 0.057
25,FSPAPPLLLHPS,0.714 ± 0.043
26,FSPASCPILPPL,0.672 ± 0.014

row,Sequence,protein stability index
1,FSQNFVSTGFRL,0.702 ± 0.028
2,FSRPPPFPLFSS,0.69 ± 0.03
3,FSSCFLVSPSLF,0.648 ± 0.016
4,FSSFVLLFFSFP,0.541 ± 0.011
5,FSSPLLLFHLPV,0.663 ± 0.04
6,FSSSASNSSWPY,0.721 ± 0.016
7,FSTLLVSPLQAS,0.641 ± 0.022
8,FSTVIDFLAYLF,0.636 ± 0.036
9,FSWDRIKQCSSV,0.7094 ± 0.0035
10,FTFARPVCLFFG,0.587 ± 0.003
11,FTHVKEVNTGNR,0.672 ± 0.053
12,FTLCPARALSLC,0.552 ± 0.024
13,FTLRFGYISDLD,0.736 ± 0.21
14,FTPLPHAHPPPP,0.664 ± 0.0034
15,FTRFWTKANDPT,0.6913 ± 0.0014
16,FTVSPFIFLFSP,0.653 ± 0.0074
17,FVCRQSGIWHLR,0.686 ± 0.029
18,FVFGSVLPGPTC,0.692 ± 0.0098
19,FVGVRTLSRIKI,0.696 ± 0.053
20,FVHSTLPPSFSI,0.735 ± 0.019
21,FVIAGDLYGLYV,0.658 ± 0.045
22,FVKEGRVGTARS,0.687 ± 0.099
23,FVPFVLFLLRPL,0.582 ± 0.022
24,FVPQPFTPPSSF,0.685 ± 0.065
25,FVRFLVGGLGRW,0.606 ± 0.05
26,FVRLFSGTLKSV,0.687 ± 0.033

row,Sequence,protein stability index
1,FVSTSFPPWFSL,0.684 ± 0.019
2,FVYHGLVGKRMV,0.666 ± 0.051
3,FWECEYVIDDVD,0.69053 ± 0.00035
4,FWEHFVLSVRPE,0.758 ± 0.076
5,FWFFRGALVHPA,0.599 ± 0.019
6,FWSCSTGHERVV,0.711 ± 0.03
7,FYFRFPGFLAGF,0.5687 ± 0.0052
8,FYGCRLLFLKAR,0.5273 ± 0.00073
9,FYYRYDRRTRCV,0.548 ± 0.012
10,GAAARSGSRKEL,0.631 ± 0.029
11,GAAVSGGRARCP,0.712 ± 0.064
12,GACDGEGGSRVR,0.611 ± 0.0075
13,GAEPTPYVAEAI,0.701 ± 0.026
14,GAFSVPKAKNAL,0.699 ± 0.1
15,GAGAHVPCSGRQ,0.6754 ± 0.0034
16,GAGEGVGSVVVR,0.632 ± 0.052
17,GAGGGGNLGWLR,0.6788 ± 0.0063
18,GAGGGSGGGQPG,0.656 ± 0.032
19,GAGGSGRRIGCR,0.762 ± 0.052
20,GAGGVRCPWVFG,0.674 ± 0.0075
21,GAGNVGSGCGGG,0.631 ± 0.035
22,GAGRGRLGVGPV,0.67 ± 0.066
23,GAGRRRAQEQQT,0.728 ± 0.015
24,GAKHDSSRQSLR,0.746 ± 0.086
25,GALARFEGAVRV,0.702 ± 0.012
26,GAMLAGRHGWGL,0.715 ± 0.04

row,Sequence,protein stability index
1,GAPRYRLQRPVP,0.672 ± 0.029
2,GAPTPPGAPPPA,0.6642 ± 0.0048
3,GARGGGQSSFGE,0.666 ± 0.012
4,GARGRGLVTESA,0.703 ± 0.035
5,GARVGDRALASG,0.7089 ± 0.0069
6,GATDMVTSGEWV,0.757 ± 0.021
7,GATLETPIGCGR,0.666 ± 0.0074
8,GAVHQLGTCLFF,0.671 ± 0.045
9,GAYSSFNGNSGD,0.681 ± 0.064
10,GCCGGGGVEGLE,0.695 ± 0.022
11,GCGFYRTSRVPS,0.717 ± 0.059
12,GCGGVWGRSEKY,0.684 ± 0.019
13,GCGHVFEVNYEC,0.6206 ± 0.0053
14,GCGKRVVVVSEL,0.6386 ± 0.00072
15,GCGLGEEGSSGV,0.647 ± 0.0091
16,GCGRYWGVVRGC,0.66 ± 0.037
17,GCHRRDALRTGD,0.667 ± 0.053
18,GCLFLCPLSPLI,0.685 ± 0.026
19,GCLIAGGIDCPP,0.66 ± 0.072
20,GCPRSCYIPSSV,0.72 ± 0.011
21,GCPSGRDIQSSH,0.643 ± 0.01
22,GCRELVRCVMLG,0.669 ± 0.083
23,GCRRGFRKGQDC,0.645 ± 0.023
24,GCSACLVSSLAG,0.63129 ± 4e-05
25,GCSGRRGRGGRG,0.743 ± 0.046
26,GCTTDQIENEIR,0.704 ± 0.033

row,Sequence,protein stability index
1,GCYGRVLELAWR,0.552 ± 0.035
2,GDDGGSGGCVER,0.6606 ± 0.0051
3,GDDVGTEVIVET,0.684 ± 0.0094
4,GDGQETEKNNAE,0.604 ± 0.046
5,GDGRCAVPFWWG,0.805 ± 0.074
6,GDKGLRPNMGLV,0.645 ± 0.0099
7,GDRGGLARAGGA,0.753 ± 0.065
8,GDSGPDDDLGIS,0.667 ± 0.065
9,GDSWVVRSGVWV,0.734 ± 0.13
10,GEAASEKKQEAG,0.644 ± 0.084
11,GEDGCGGSEAGG,0.656 ± 0.028
12,GEGALTGGAGGQ,0.647 ± 0.0074
13,GEGCPAGGHGCE,0.6864 ± 0.0063
14,GEGGGAGGLEWG,0.687 ± 0.081
15,GEGRWWGSFWVG,0.672 ± 0.019
16,GEGSQTGSLIPL,0.71 ± 0.031
17,GENAIVEVWAGG,0.686 ± 0.022
18,GFCCLGGVRPSV,0.655 ± 0.027
19,GFCRKESVRCEK,0.683 ± 0.018
20,GFDFLHHIVASS,0.728 ± 0.017
21,GFEAFGPFIPAF,0.681 ± 0.019
22,GFEVAFSCSSWW,0.716 ± 0.038
23,GFGKVIMEIESI,0.715 ± 0.043
24,GFLGCGSGCGGG,0.777 ± 0.1
25,GFLPDSKVKNPF,0.673 ± 0.029
26,GFMSFAVTCGLL,0.688 ± 0.11

row,Sequence,protein stability index
1,GFQIVCSAGERV,0.611 ± 0.027
2,GFSLLGPFAFWV,0.688 ± 0.066
3,GFSSSFAGGLLF,0.763 ± 0.036
4,GFSTCCLFWLTV,0.529 ± 0.029
5,GFVLSFADLLGV,0.653 ± 0.054
6,GFVQGNNGFLMK,0.682 ± 0.034
7,GFWLVSCPWLLF,0.612 ± 0.14
8,GFYAMWNSIFWF,0.743 ± 0.001
9,GGAAGRRAAEVG,0.694 ± 0.013
10,GGAPAPPSRRPW,0.696 ± 0.032
11,GGAVSRVGEGGR,0.785 ± 0.02
12,GGCCLWVGFPGG,0.6957 ± 0.0051
13,GGCSLRWARCRW,0.686 ± 0.078
14,GGCVSRPLGRCV,0.648 ± 0.088
15,GGDGAVSRRWGR,0.685 ± 0.015
16,GGDGGLVMGGGN,0.684 ± 0.018
17,GGDVCGWWCWRG,0.645 ± 0.098
18,GGDWVVVALLGV,0.596 ± 0.017
19,GGEVGRGRLGVV,0.628 ± 0.018
20,GGFALIWQRVCP,0.705 ± 0.011
21,GGGACRVCGCEV,0.648 ± 0.0067
22,GGGECLWNKQAV,0.687 ± 0.024
23,GGGGAGGGAGGG,0.616 ± 0.042
24,GGGGCVGEWWGR,0.7423 ± 0.0039
25,GGGGEGPGKSPR,0.669 ± 0.14
